The results in this text go back to US20110229461A1 (UCB, published 2011).

Numbering of substitutions follows the chain as printed. Names and notes keep the numbering of the source.

For assay [1], the target named is T1, human PD-1 (recombinant, titrated in BIAcore) (human, UniProt Q15116 25-170).
T1 construct: extracellular domain; also called recombinant human PD-1 extracellular domain
Description: SPR BIAcore 3000; antibody captured by anti-human Fc, human PD-1 titrated.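 Also: CM5 chip with amine-coupled goat anti-human Fc F(ab′)₂, HBS-EP running buffer at 10 µL/min, blank-surface-subtracted sensorgrams fitted in BIAevaluation 3.2 for kinetic constants.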

The target in assay [2] is T2, human PD-1 on cells (transfected HEK293 cells; human T cells) (human, UniProt Q15116 25-288).
T2 construct: whole, on cells; HEK293 cells transiently transfected with human PD-1 DNA; also called PD-1 expressing HEK293 cells; PD-1 transfected HEK cells
T2 sequence (Q15116 25-288): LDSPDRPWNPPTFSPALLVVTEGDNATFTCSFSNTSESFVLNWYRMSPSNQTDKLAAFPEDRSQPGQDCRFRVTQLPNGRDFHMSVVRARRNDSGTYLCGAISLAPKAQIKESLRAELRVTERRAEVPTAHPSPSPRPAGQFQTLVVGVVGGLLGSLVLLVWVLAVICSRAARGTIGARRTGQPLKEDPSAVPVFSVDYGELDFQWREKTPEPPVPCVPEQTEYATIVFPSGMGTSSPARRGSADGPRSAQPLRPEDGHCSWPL
In words: flow cytometry on activated human T cells.

Assay [3] addresses T2, human PD-1 on cells (transfected HEK293 …). In words: flow cytometry on activated human T cells; unconstrained curve; unconstrained curve.
Assay [4] shares this target. In words: flow cytometry on activated human T cells; top of curve constrained; top part of curve constrained to ~45 geo mean.

T1 sequence (Q15116 25-170): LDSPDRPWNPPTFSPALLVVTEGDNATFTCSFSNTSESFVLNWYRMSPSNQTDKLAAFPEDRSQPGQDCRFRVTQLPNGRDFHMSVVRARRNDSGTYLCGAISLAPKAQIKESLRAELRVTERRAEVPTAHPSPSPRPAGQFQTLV

B1: 949 VK1 gL9 gH8a (antibody, V domains shown)
VH: EVQLVQSGAEVKKPGASVKVSCKAFGYTFTTYPIEWMRQAHGQGLEWIGNFHPYNDDTKYNEKFKGRVTMTRDTSTSTVYMELSSLRSEDTAVYYCARENYGSHGGFVYWGQGTLVTVS
VL: ENVLTQSPFSLSASVGDRVTITCRASSSVISSYLHWYQQKPAKAPKLFIYSTSNLASGVPSRFSGSGSGTDYTLTISSLQPEDFATYYCQQYNGYPLTFGGGTKVEIK
notes: Humanised; human kappa constant (Km3)
Take B1: in assay [1], the Kd stood at 2.35 nM.

B2: 949 VK3 gL1 gH1a (antibody, V domains shown)
VH: B1 VH with R72V, T74K, S77T
VL: ENVLTQSPGTLSLSPGERATLSCRASSSVISSYLHWYQQKPGQAPRLWIYSTSNLASGVPDRFSGSGSGTSYTLTISRLEPEDFATYYCQQYNGYPLTFGGGTKVEIK
notes: as for B1
Regarding B2, in assay [1], the Kd was 4.02 nM, the koff was 0.000844 s⁻¹ and the kon was 210000 M⁻¹ s⁻¹.

B3: 949 VK1 gL9 gH8b (antibody, V domains shown)
VH: B1 VH with A16S, M70I, R72A, T74K, V79A
VL: B1 VL
notes: as for B1
Take B3: in assay [1], the Kd turned out to be 2.34 nM.

B4: 949 VK1 gL1 gH1b (antibody, V domains shown)
VH: B1 VH with A16S, M70I, R72V, T74K, S77T
VL: B1 VL with F48W, S61D, D71S
notes: as for B1
On to B4, for which, in assay [1], the Kd was 2.92 nM, the koff was determined as 0.000556 s⁻¹ and the kon was 191000 M⁻¹ s⁻¹.

B5: 949 VK1 gL15 gH8a (antibody, V domains shown)
VH: B1 VH
VL: B1 VL with G94S
notes: Humanised; human kappa constant (Km3); also called Transient #2
For the molecule B5, the EC50 in assay [2] is 3.15 µg/mL.

B6: 949 VK1 gL1 gH1a (antibody, V domains shown)
VH: B1 VH with R72V, T74K, S77T
VL: B1 VL with F48W, S61D, D71S
notes: Humanised; human kappa constant (Km3); Heavy V regions were cloned into gamma-4P (S241P), gamma-4P delta Lys and gamma-1 delta Lys vectors
Consider B6, for which, in assay [1], the Kd is 3.71 nM, the koff worked out at 0.000782 s⁻¹ and the kon stood at 211000 M⁻¹ s⁻¹.

B7: 949 VK3 gL11 gH1a (antibody, V domains shown)
VH: B1 VH with R72V, T74K, S77T
VL: B2 VL with G94S
notes: as for B1
Regarding B7, in assay [1], the Kd stood at 4.89 nM, the koff stood at 0.00109 s⁻¹ and the kon came to 223000 M⁻¹ s⁻¹.

B8: 949 VK1 gL12 gH8a (antibody, V domains shown)
VH: B1 VH
VL: B1 VL with L4M
notes: as for B1
For B8, in assay [1], the Kd amounted to 2.46 nM.

B9: 949 VK1 gL15 gH8b (antibody, V domains shown)
VH: B1 VH with A16S, M70I, R72A, T74K, V79A
VL: B1 VL with G94S
notes: Humanised; human kappa constant (Km3); also called Transient #3
Consider B9, for which a half-maximal response in assay [2] (EC50) required 6.09 µg/mL.

B10: 949 VK1 gL15 gH20b (antibody, V domains shown)
VH: B1 VH with A16S, F25S, M37V, H41P, I48M, M70I, R72A, T74K, V79A
VL: B1 VL with G94S
notes: Humanised; also called Transient #5
In assay [2], B10 yielded an EC50 of 4.1 µg/mL.

B11: 949 VK1 gL9 gH20a (antibody, V domains shown)
VH: B1 VH with M37V, H41P, I48M
VL: B1 VL
notes: as for B1
In the case of B11, the Kd in assay [1] is 3.17 nM.

B12: 949 VK1 gL11 gH1a (antibody, V domains shown)
VH: B1 VH with R72V, T74K, S77T
VL: B1 VL with F48W, S61D, D71S, G94S
notes: as for B1
On to B12, for which, in assay [1], the Kd is 5.54 nM, the koff was found to be 0.00115 s⁻¹ and the kon is 207000 M⁻¹ s⁻¹.

B13: 949 VK1 gL9 gH20b (antibody, V domains shown)
VH: B1 VH with A16S, F25S, M37V, H41P, I48M, M70I, R72A, T74K, V79A
VL: B1 VL
notes: Humanised; human kappa constant (Km3); also called Transient #1
Molecule B13 had an EC50 in assay [2] of 1.14 µg/mL. Also, the Kd in assay [1] came out at 2.66 nM.

B14: 949 VK3 gL1 gH1b (antibody, V domains shown)
VH: B1 VH with A16S, M70I, R72V, T74K, S77T
VL: B2 VL
notes: as for B1
As for B14, in assay [1], the Kd was determined as 3.14 nM, the koff amounted to 0.00065 s⁻¹ and the association rate constant (kon) was 207000 M⁻¹ s⁻¹.

B15: 949 VK1 gL15 gH20a (antibody, V domains shown)
VH: B1 VH with M37V, H41P, I48M
VL: B1 VL with G94S
notes: Humanised; human kappa constant (Km3); also called Transient #4
For the molecule B15, the response in assay [2] was half-maximal at 2.89 µg/mL (EC50).

B16: 949 VK1 gL12 gH20b (antibody, V domains shown)
VH: B1 VH with A16S, F25S, M37V, H41P, I48M, M70I, R72A, T74K, V79A
VL: B1 VL with L4M
notes: as for B1
On to B16, for which the Kd in assay [1] came to 3.8 nM.

B17: 949 VK1 gL12 gH8b (antibody, V domains shown)
VH: B1 VH with A16S, M70I, R72A, T74K, V79A
VL: B1 VL with L4M
notes: as for B1
For the molecule B17, the Kd in assay [1] was 2.77 nM.

B18: 949 VK1 gL14 gH8b (antibody, V domains shown)
VH: B1 VH with A16S, M70I, R72A, T74K, V79A
VL: B1 VL with L4M, G94S
notes: as for B1
With B18, the Kd in assay [1] came out at 4.38 nM.

B19: 949 VK1 gL14 gH8a (antibody, V domains shown)
VH: B1 VH
VL: B1 VL with L4M, G94S
notes: as for B1
As for B19, in assay [1], the Kd stood at 4.75 nM.

B20: 949 VK1 gL12 gH20a (antibody, V domains shown)
VH: B1 VH with M37V, H41P, I48M
VL: B1 VL with L4M
notes: as for B1
As to B20, the Kd in assay [1] was found to be 3.38 nM.

B21: antibody CA051-00949 (949), parental variable regions, murine IgG1 (antibody, V domains shown)
VH: QVQLQQSGAELVKPGASVKMSCKAFGYTFTTYPIEWMKQNHGKSLEWIGNFHPYNDDTKYNEKFKGKAKLTVEKSSTTVYLELSRLTSDDSAVYYCARENYGSHGGFVYWGQGTLVTVS
VL: ENVLTQSPAIMSASPGEKVTMTCRASSSVISSYLHWYQQKSGASPKLWIYSTSNLASGVPDRFSGSGSGTSYSLTISSVEAEDAATYYCQQYNGYPLTFGAGTKLEIK
notes: also called Clone 19
For the molecule B21, the Kd in assay [1] came out at 5.07 nM.

B22: 949 chimeric (949 variable regions with human IgG4 constant domains) (antibody, V domains shown)
VH: B21 VH
VL: B21 VL
notes: also called original CA949 construct, cLcH
Regarding B22, the EC50 in assay [3] worked out at 1.2 µg/mL; in assay [4], 3.61 µg/mL. Moreover, the Kd in assay [1] came out at 5.98 nM.
